The values below come from PMC9486944, “Structurally Informed Mutagenesis of a Stereochemically Promiscuous Aldolase Produces Mutants That Catalyze the Diastereoselective Syntheses of All Four Stereoisomers of 3-Deoxy-hexulosonic Acid” (ACS Catalysis, 2022).

In data set [1] the target is SsKDG-aldolase Variant 2 (T157V/D181Q/A198L) (Sulfolobus solfataricus). The data set can be described thus: crystal structure; hanging-drop vapor diffusion at 18 °C; 11–15% PEG4K, 4–12% isopropanol, 0.1 M HEPES pH 5.9–6.8; unsoaked crystals, crystals soaked in 30 mM 3-deoxy-hexulosonic acid, Variant 2 also cocrystallized with 100 mM pyruvate.
The target in the next data set is T1, SsKDG-aldolase (Saccharolobus solfataricus, UniProt O54288, T157V/A198L).
T1 construct: full length, pET-3a in E. coli BL21 (DE3); heat treatment, anion exchange, gel filtration; no tag mentioned; 293 C-alpha positions; tetramer
Kind of data set: X-ray crystal structure. The format is binding. The following applies: Variant 3; 2 min soak in 30 mM ligand; active site, covalent (Lys155 Schiff base). The source says:
X-ray crystal structure on SsKDG-aldolase | which enabled us to determine the structure of the […] complex

Substrate in data set [2]: O=C[C@@H](O)CO
The data set can be described thus: purified protein. The following applies: 50 mM sodium phosphate pH 6.0, 70 °C.

Substrate in data set [3]: O=C[C@H](O)CO
Kind of data set: purified protein. The following applies: 50 mM sodium phosphate pH 6.0, 70 °C.

Substrate in data set [4]: CC(=O)C(=O)O
Kind of data set: thiobarbituric acid assay of aldol product. The format is biochemical, Saccharolobus solfataricus. The following applies: 50 mM sodium phosphate pH 6.0, 70 °C.

Where [5] appears, read: Variant 3, near-saturating pyruvate.
[6] abbreviates: Variant 3, near-saturating D-glyceraldehyde.
Where [7] appears, read: Variant 4, near-saturating pyruvate.
Where [8] appears, read: Variant 4, near-saturating D-glyceraldehyde.

Substitutions are numbered along the chain they refer to. Numbers in names are those of the source.

Regarding “SsKDG-aldolase Variant 2 (T157V/D181Q/A198L) (enzyme)”, the stoichiometry N in data set [1] stood at 4.
For `O=C(O)C(=O)C[C@@H](O)[C@@H](O)CO` [L-KDGlc], on SsKDG-aldolase, the X-ray crystal structure entry is recorded as “which enabled us to determine the structure of the L-KDGlc complex”.

B1: SsKDG-aldolase (Saccharolobus solfataricus; A198L/T157V) (protein)
chain: PEIITPIITPFTKDNRIDKEKLKIHAENLIRKGIDKLFVNGTTGLGPSLSPEEKLENLKAVYDVTNKIIFQVGGLNLDDAIRLAKLSKDFDIVGIASYAPYYYPRMSEKHLVKYFKTLCEVSPHPVYLYNYPTATGKDIDAKVAKEIGCFTGVKDVIENIIHTLDYKRLNPNMLVYSGSDMLIATVASTGLDGNVALGSNYLPEVTVTIKKLAMERKIDEALKLQFLHDEVIEASRIFGSLSSNYVLTKYFQGYDLGYPRPPIFPLDDEEERQLIKKVEGIRAKLVELKILKE
notes: full length, pET-3a in E. coli BL21 (DE3); heat treatment, anion exchange, gel filtration; no tag mentioned; 293 C-alpha positions; tetramer
B1: the Km is 37.6 (±0.2) mM in “purified protein [2]” (setting [5]), 19.5 (±0.2) mM in the data set “purified protein [3]” (setting [5]) and 2.9 (±0.1) mM in data set [4] (setting [6]). The Vmax in “purified protein [2]” (setting [5]) worked out at 6.1 µmol/min/mg; in “purified protein [3]” (setting [5]), 1.8 µmol/min/mg; in data set [4] (setting [6]) it was 1.7 µmol/min/mg.

B2: SsKDG-aldolase (Saccharolobus solfataricus; A198F/Y103F/Y130F) (protein)
chain: B1 chain with Y102F, Y129F, V156T, L197F
notes: as for B1
For B2, the results for the Km (in the data set “purified protein [2]” (setting [7]); in “purified protein [3]” (setting [7]); in data set [4] (setting [8])) were 6.3 (±0.18) mM, 6.9 (±0.2) mM and 0.3 (±0.04) mM, respectively. In addition, the Vmax in “purified protein [2]” (setting [7]) was 0.06 µmol/min/mg; in “purified protein [3]” (setting [7]), 0.11 µmol/min/mg; in data set [4] (setting [8]), 0.09 µmol/min/mg.

Usually stoichiometry N stands for the number of molecules, sites or subunits per partner or assembly. As usually defined, the Vmax is the rate approached at saturating substrate.
